Assay [1] addresses T1, AbApeO-AbApeC heterodimer (ketosynthase-chain length factor complex of the aryl polyene biosynthesis gene … (Acinetobacter baumannii)).
T1 construct: ApeO, ketosynthase of the APE biosynthesis gene cluster, Acinetobacter baumannii (pathogenic strain, global clone 2); ApeC, chain length factor of the APE biosynthesis gene cluster, Acinetobacter baumannii (pathogenic strain, global clone 2); The His6 tag on AbApeO is said to be not cleavable; The complex was formed by co-expression and used as one molecule in ITC; also called ApeO-ApeC; …
The assay is described as follows: ITC; 2.0 mM holo ACP1 or holo ACP2 injected (19 injections of 3 µl) into 0.1 mM AbApeO-AbApeC or AbApeR; 25 °C; 40 mM potassium phosphate pH 7.0; 2 mM 2-mercaptoethanol. Particulars: both partners purified. A general note: Isothermal titration calorimetry measures the heat released or taken up as one component is titrated into another.

Assay [2] deals with T2, AbApeR (FabB-like homodimeric ketosynthase of the A. baumannii APE gene cluster) (Acinetobacter baumannii).
T2 construct: ApeR, ketoacyl-ACP synthase I (FabB)-like ketosynthase of the APE biosynthesis gene cluster, Acinetobacter baumannii (pathogenic strain, global clone 2); not shown: His6, N-terminal, cleaved
Described as above. Particulars: both partners purified.

B1: holo ACP2 (ApeF), acyl carrier protein 2 of the A. baumannii APE gene cluster (natural protein)
chain: MSNLADELKQMIIDVLALEDITIADIDTEAPLFGEGLGLDSIDALELGLALKKRYNIHLNAESDETKQHFKSIQSLVALVEAQQKS
modifications: 4'-phosphopantetheine (holo form)
Turning to B1, the stoichiometry N (usually the number of molecules, sites or subunits per partner or assembly) in assay [1] came to 1.21. Moreover, in assay [2], the Kd – broadly, a measure of binding affinity in units of concentration – came to 41 µM and the “stoichiometry N” value worked out at 0.71.

(Values after PMC8358021, “Structural basis of the complementary activity of two ketosynthases in aryl polyene biosynthesis” (Scientific Reports, 2021).)
